# Target: GST-p65, purified recombinant (UniProt Q04206)
# Assay: alanine-scanning peptide array probed with GST-p65, anti-GST immunoblot
# UniProt Q04206, sequence (Q04206 whole entry, looked up): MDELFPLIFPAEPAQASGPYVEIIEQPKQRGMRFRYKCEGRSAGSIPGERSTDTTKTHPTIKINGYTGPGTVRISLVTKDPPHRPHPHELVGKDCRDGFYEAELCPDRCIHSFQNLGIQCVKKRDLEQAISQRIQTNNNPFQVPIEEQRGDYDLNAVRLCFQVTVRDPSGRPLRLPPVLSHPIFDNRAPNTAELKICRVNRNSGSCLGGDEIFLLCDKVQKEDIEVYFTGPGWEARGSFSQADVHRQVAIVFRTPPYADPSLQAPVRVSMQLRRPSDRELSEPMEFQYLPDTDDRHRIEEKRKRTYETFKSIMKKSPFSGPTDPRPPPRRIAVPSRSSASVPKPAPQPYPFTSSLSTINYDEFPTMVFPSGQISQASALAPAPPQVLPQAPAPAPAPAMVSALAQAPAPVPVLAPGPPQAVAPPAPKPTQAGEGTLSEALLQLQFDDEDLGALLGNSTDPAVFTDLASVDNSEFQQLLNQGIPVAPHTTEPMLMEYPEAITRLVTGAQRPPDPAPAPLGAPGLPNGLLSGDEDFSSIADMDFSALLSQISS
row,percent of parent (% of parent peptide),Substance
1,< 60,"USP7 peptide A23 (629-646, …) K633A"
2,< 60,"USP7 peptide A23 (629-646, …) R634A"
3,< 60,"USP7 peptide C13 (829-846, …) D833A"
4,< 60,"USP7 peptide C13 (829-846, …) F839A"
5,< 60,"USP7 peptide C13 (829-846, …) M835A"
6,< 60,"USP7 peptide C13 (829-846, …) Y845A"
7,< 60,"USP7 peptide C20 (857-874, …) Q872A"
8,< 60,"USP7 peptide C25 (877-894, …) D887A"
9,< 60,"USP7 peptide C25 (877-894, …) F888A"
10,< 60,"USP7 peptide C25 (877-894, …) F894A"
11,< 60,"USP7 peptide C30 (897-914, …) E905A"
12,< 60,"USP7 peptide C30 (897-914, …) F903A"
13,< 60,"USP7 peptide C30 (897-914, …) K914A"
14,< 60,"USP7 peptide C30 (897-914, …) L899A"

# Reference: PMC7450122
